From US5863889A, “ICAM-1/LFA-1 short-chain peptides and method of using same” (The University of Kansas, priority 1996, dated 1999)

Molecular target: T1, LFA-1 (CD11a) (Homo sapiens, UniProt P20701)
T1 construct: host or cells: Molt3 human T-cell leukemia line
Assay: Antibody binding assay (FACS): anti-LFA-1 mAb (mouse IgG anti-human CD11a) binding to Molt3 T-cells after peptide incubation
Type: cell-based
Conditions: for Fluorescence, % change from control of the medium fluorescence intensity: mAb CD11a, average ± standard error of runs
Procedure: A 1 ml quantity of the Molt3 inoculum was warmed to 37° C. and transferred by pipette into about 25 ml of a growth culture medium including RPMI 1640 lymphocyte growth medium (Fisher Scientific of St. Louis, Miss.) mixed with 10% by volume fetal calf serum, 100 units/ml penicillin, 100 μg/ml streptomycin and 2 mM glutamine. The inoculated culture was incubated for three to four days at 37° C. under a normal atmosphere having about 5% CO2 added thereto. This culture was capable of being maintained indefinitely by siphoning away the top (non-cell containing) layer and adding 50 ml (or more) of growth culture medium at intervals of three to four days.
An aqueous buffer solution including Dulbecco's phosphate buffered saline and bovine serum albumin ("-PBS/BSA solution") was prepared for use, and included a mixture of 200 mg KH2 PO4, 1.15 g Na2 HPO4, 100 mg CaCl2, 200 mg KCl, 100 mg MgCl2.6H2 O, 8 g NaCl, with distilled water added to a final 1 liter volume at room temperature, thus, forming a "PBS" solution of pH 7.4 to which was added 0.5% by weight bovine serum albumin.
An aliquot of about 7 ml was removed from the incubated culture medium and subjected to washing with the PBS/BSA solution. The washing procedure was initiated by placing the aliquot in a centrifuge (Model GT422 from Jouan, distributed Piruscio & Assoc. of Manchester, Miss.) at 1400 rpm for 6.5 minutes to separate the cells from the growth medium. The supernatant fluid was decanted, a 5 ml portion of PBS/BSA solution was transferred by pipette into the pellet, and the mixture was again centrifuged as before. The resulting supernatant fluid was decanted and the cells from the pellet were resuspended in PBS/BSA solution at a titer of about 1×10^6 cells/ml. A 500 μl portion of the solution containing the resuspended cells was placed in a microcentrifuge (Marathon 13K/M from Fisher Scientific of St. Louis, Miss.) at 3500 rpm for six minutes, to provide a washed pellet.
[…] The cells were incubated with the peptide cocktail at 37° C. for 45 minutes.
After incubation with the peptide cocktail, several antibodies were successively mixed into the incubated solution. A 75 μl portion of anti-IgM solution (a mixture of 10 μl of goat anti-human IgM stock purchased from Jackson Immuno Research of Westgrove, Pa.; and 65 μl of PBS/BSA solution) was added to the peptide cocktail for blocking of nonspecific binding of the secondary antibody. The resulting mixture was incubated for 10 minutes on ice. About 0.1 μg of a primary antibody including mouse IgG anti-human CD11a (purified according to conventional protocols at the University of Kansas Department of Pharmacology and Toxicology from an American Type Culture hybridoma cell line having Catalogue Number HB-202) was next stirred into the mixture, which was then incubated for 30 minutes at room temperature. The incubated mixture was placed in a microcentrifuge at 3500 rpm for six minutes to remove the cells from the mixture, and the cell pellet was washed two times by adding 500 μl aliquots of PBS/BSA solution and microfuging to remove non-bound antibodies from the cells as before. The resulting washed pellet was resuspended in 100 μl of a secondary antibody cocktail including 5 μl of fluorescein isothiocyanate ("FITC") labeled goat anti-mouse IgG (from CALTAG of South San Francisco, Calif.) and 95 μl of PBS/BSA solution. The resulting solution was incubated for 30 minutes at room temperature in the dark.
The incubated solution including the secondary antibody cocktail was microfuged at 3500 rpm for six minutes to remove the cells from the solution, and the cell pellet was washed two times with 500 μl portions of PBS/BSA solution, as before, to remove unbound antibodies. […]

T1 sequence (P20701 26-1170): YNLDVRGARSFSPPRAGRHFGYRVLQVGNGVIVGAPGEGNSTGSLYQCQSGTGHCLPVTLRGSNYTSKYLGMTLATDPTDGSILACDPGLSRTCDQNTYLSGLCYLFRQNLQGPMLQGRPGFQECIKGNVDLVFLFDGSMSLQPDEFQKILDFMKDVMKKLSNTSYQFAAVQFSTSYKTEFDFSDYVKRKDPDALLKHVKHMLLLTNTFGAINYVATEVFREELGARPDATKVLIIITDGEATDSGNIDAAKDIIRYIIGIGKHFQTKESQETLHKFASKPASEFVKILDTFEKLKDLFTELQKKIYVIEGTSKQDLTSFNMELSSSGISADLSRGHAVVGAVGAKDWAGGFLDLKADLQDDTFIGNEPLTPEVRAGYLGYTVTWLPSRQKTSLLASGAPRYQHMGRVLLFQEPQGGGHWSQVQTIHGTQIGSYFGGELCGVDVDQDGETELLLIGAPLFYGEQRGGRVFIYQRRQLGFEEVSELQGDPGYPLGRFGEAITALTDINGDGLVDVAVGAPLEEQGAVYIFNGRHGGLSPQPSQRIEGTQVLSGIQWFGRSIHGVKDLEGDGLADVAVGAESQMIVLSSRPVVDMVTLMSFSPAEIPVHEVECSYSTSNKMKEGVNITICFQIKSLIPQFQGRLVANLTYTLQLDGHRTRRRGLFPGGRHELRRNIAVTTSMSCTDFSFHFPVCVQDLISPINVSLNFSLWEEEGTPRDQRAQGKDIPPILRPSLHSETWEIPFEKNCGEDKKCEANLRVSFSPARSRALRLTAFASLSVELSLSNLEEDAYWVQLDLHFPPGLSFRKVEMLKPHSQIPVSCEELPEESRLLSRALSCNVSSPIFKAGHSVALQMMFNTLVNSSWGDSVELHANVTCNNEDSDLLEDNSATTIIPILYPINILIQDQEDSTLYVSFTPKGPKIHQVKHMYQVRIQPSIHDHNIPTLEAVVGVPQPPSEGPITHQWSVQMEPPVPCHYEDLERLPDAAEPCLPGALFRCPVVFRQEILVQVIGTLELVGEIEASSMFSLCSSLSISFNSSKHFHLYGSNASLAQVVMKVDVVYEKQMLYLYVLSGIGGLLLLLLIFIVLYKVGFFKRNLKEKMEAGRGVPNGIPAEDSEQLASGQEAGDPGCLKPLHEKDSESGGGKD
T1 sequence (P05107 23-769 partner): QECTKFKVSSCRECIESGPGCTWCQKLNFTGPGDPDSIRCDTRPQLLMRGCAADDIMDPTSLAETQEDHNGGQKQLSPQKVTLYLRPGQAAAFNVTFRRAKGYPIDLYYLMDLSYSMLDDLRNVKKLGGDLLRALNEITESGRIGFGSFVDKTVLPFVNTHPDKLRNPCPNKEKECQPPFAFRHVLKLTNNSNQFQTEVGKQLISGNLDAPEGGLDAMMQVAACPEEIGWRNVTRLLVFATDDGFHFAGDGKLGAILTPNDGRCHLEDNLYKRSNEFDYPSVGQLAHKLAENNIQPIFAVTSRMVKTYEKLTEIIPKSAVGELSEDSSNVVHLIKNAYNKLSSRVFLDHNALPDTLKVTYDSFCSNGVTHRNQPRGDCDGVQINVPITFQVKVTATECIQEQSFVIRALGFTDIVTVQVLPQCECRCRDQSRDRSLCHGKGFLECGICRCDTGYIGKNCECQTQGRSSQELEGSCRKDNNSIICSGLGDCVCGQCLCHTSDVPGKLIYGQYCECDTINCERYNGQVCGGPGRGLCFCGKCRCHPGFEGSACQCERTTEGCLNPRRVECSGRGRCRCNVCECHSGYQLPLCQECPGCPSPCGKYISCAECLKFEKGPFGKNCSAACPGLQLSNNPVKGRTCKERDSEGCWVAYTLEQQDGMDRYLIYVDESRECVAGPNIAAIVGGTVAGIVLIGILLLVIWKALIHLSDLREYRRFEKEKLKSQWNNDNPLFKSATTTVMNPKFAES

SC-3-111: ICAM-1 based short-chain peptide, Sequence ID No. 10 (QTSVSPSKVI)
Fluorescence, % change from control of the medium fluorescence intensity (peptide 2275 μM): -12 ± 4% | Fluorescence, % change from control of the medium fluorescence intensity (peptide 4550 μM, negative = blocking): -29 ± 2% | blocking efficiency (single above-average run (FIGS. 2, 3), peptide 4550 μM, anti-CD11a): 51% | sample median peak fluorescence intensity value (single run of FIG. 2 (control 264.41), anti-CD11a): 128.74 | % change of median peak vs control (single run of FIG. 2, peptide 4550 μM, anti-CD11a): -51%
